One assay deals with Human glu-plasminogen. The assay can be described thus: ELISA. The note with it: 5 μg/ml immobilized CbiA protein, 10 μg/ml plasminogen, polyclonal antibody 1:1,000, read off a plot.
The target of assay [1] is His6-tagged CbiA of B. miyamotoi (B. miyamotoi). The assay can be described thus: ELISA; proteins (5 μg/ml) immobilised, plasminogen in the presence of increasing concentrations of NaBr; binding without NaBr set to 100%.
For assay [2] the target is unchanged. The assay can be described thus: ELISA; proteins (5 μg/ml) immobilised, plasminogen in the presence of increasing concentrations of the lysine analog tranexamic acid; binding without tranexamic acid set to 100%. In general terms: ELISA stands for enzyme-linked immunosorbent assay.
Assay [3] shares this target. Briefly: ELISA; CbiA (5 μg/ml) immobilised, increasing concentrations of plasminogen; non-linear regression, one-site specific binding model; apparent dissociation constant.

Take His6-tagged CbiA of B. miyamotoi K153A: the response (Absorbance at 490 nm) with Human glu-plasminogen (parent: est. 0.72) was 1.1.

In the case of “His6-tagged CbiA of B. miyamotoi K154A; K162A”, in the assay with Human glu-plasminogen (parent: est. 0.72), the response (Absorbance at 490 nm) is 0.9.

Regarding His6-tagged CbiA of B. miyamotoi R185A, the response (Absorbance at 490 nm) with Human glu-plasminogen (parent: est. 0.78) was found to be 0.81.

In the case of His6-tagged CbiA of B. miyamotoi R163A, the response (Absorbance at 490 nm) in the assay with Human glu-plasminogen (parent: est. 0.78) was 0.74.

Take “His6-tagged CbiA of B. miyamotoi K153A; K154A; K162A; K188A”: the response (Absorbance at 490 nm) in the assay with Human glu-plasminogen (parent: est. 0.72) was found to be 1.

Consider “His6-tagged CbiA of B. miyamotoi K154A; K162A; K188A”, for which the response (Absorbance at 490 nm) with Human glu-plasminogen (parent: est. 0.72) was determined as 1.

As for His6-tagged CbiA of B. miyamotoi K154A, the response (Absorbance at 490 nm) with Human glu-plasminogen (parent: est. 0.72) stood at 0.83.

Turning to His6-tagged CbiA of B. miyamotoi K188A, in the assay with Human glu-plasminogen (parent: est. 0.72), the response (Absorbance at 490 nm) was determined as 0.81.

For His6-tagged CbiA of B. miyamotoi R156A, the response (Absorbance at 490 nm) in the assay with Human glu-plasminogen (parent: est. 0.78) was 0.6.

As for Human glu-plasminogen (natural protein), in assay [1], the percent of binding at 250 mM NaBr (without NaBr = 100%) was 43%. In assay [2], the percent decrease of binding with 0.1 mM tranexamic acid is over 17% and the percent of binding at 10 mM tranexamic acid (without tranexamic acid = 100%) was 48%. In addition, the Kd in assay [3] turned out to be 347 nM.

Consider “His6-tagged CbiA of B. miyamotoi K154A; R156A”, for which the response (Absorbance at 490 nm) with Human glu-plasminogen (parent: est. 0.78) came out at 0.58.

On to His6-tagged CbiA of B. miyamotoi K162A, for which, in the assay with Human glu-plasminogen (parent: est. 0.72), the response (Absorbance at 490 nm) was 1.

For the substance His6-tagged CbiA of B. miyamotoi R145A, in the assay with Human glu-plasminogen (parent: est. 0.78), the response (Absorbance at 490 nm) is 0.66.

The values are drawn from article PMC5801413.
